In US5436138A, “Method for protein N-myristoylation” (Washington University, priority 1993, dated 1995):
Numbering of substitutions follows the chain as printed. Where a SMILES comes first, the peptide text is derived from it.

Experiments:
[1] = molecular target: T1, 45 kDa E. coli NMT (NMT missing the NH2-terminal 39 residues) (Saccharomyces cerevisiae, UniProt P14743); test: coupled in vitro assay for NMT activity, 45 kDa E. coli NMT; type: biochemical, S. cerevisiae; conditions: for Vmax, 45 kDa E. coli NMT: percentage of Vmax with GNAAAARR and myristoyl-CoA; for Km: peptide substrate varied
T1 construct: S2A lies in the removed part
T1 sequence (P14743 40-455): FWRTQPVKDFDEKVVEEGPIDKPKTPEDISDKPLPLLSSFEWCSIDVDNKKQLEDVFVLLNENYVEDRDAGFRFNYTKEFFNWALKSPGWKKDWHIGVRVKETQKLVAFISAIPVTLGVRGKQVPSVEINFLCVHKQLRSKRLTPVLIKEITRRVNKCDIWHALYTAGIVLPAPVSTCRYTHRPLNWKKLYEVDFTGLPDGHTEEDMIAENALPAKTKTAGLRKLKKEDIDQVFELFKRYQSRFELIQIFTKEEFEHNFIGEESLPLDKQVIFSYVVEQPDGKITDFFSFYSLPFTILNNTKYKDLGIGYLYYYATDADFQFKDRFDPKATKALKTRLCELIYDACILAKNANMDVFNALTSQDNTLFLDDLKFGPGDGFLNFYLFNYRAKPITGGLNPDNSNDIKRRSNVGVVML
Experimental: (§1) In vitro assay system for NMT activity. To assess the peptide and acyl-CoA substrate specificities of E. coli-derived S. cerevisiae NMT, crude lysates or partially purified enzyme preparations were added to a coupled in vitro assay system [Towler and Glaser, Proc. Natl. Acad. Sci. USA 83, 2812-2816 (1986)]. The first step of this assay involves enzymatic conversion of radiolabeled fatty acids to their CoA thioesters by Pseudomonas acyl-CoA ligase. This ligase is largely nonspecific for fatty acid substrates [Shimizu et al., Anal. Biochem. 107, 193-198 (1980)]. Octapeptide substrates and NMT were then added to produce acylpeptides. Acylpeptides were purified from the reaction mixture by trichloroacetic acid/methanol precipitation and C18 reverse phase HPLC using a linear gradient of acetonitrile in water [Towler and Glaser, Proc. Natl. Acad. Sci. USA 83, 2812-2816 (1986)].
To obtain a homogenous preparation of the enzyme, E. coli-produced NMT was further purified by Mono S fast protein liquid chromatography (FPLC).
(§2) The peptide Km and Vmax values shown in the above Table I are averages obtained from 4- or 5-point Lineweaver-Burke plots. These plots were produced using data generated in at least three independent in vitro NMT assays. Varying concentrations of peptides were assayed with 15 μM myristate to determine peptide Km and Vmax values. […] Yeast NMT was from a 570 fold purified preparation [Towler et al., Proc. Natl. Acad. Sci. USA 84, 2708-2712 (1987)]. Synthetic peptide substrates are represented by their conventional one letter amino acid code. […] ND=not determined.

[2] = molecular target: T2, Yeast NMT (partially purified from S. cerevisiae) (Saccharomyces cerevisiae, UniProt P14743); test: coupled in vitro assay for NMT activity, Yeast NMT; type: biochemical; conditions: for Vmax, Yeast NMT: percentage of Vmax with GNAAAARR and myristoyl-CoA; for Km: peptide substrate varied, 570 fold purified preparation
T2 sequence (P14743 1-455): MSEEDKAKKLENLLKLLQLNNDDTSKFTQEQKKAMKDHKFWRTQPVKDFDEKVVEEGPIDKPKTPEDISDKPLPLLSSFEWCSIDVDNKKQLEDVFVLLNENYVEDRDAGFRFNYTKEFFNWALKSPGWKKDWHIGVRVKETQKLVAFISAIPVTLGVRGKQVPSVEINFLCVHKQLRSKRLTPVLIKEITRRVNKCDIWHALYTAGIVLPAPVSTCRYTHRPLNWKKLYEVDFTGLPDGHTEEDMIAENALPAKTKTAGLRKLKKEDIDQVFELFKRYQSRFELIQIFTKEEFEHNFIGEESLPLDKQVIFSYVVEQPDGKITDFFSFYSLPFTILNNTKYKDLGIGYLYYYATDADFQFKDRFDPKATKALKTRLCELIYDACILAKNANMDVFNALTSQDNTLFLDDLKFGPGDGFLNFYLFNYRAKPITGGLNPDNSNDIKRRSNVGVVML
Experimental: as §1, §2

[3] = molecular target: T3, E. coli-derived S. cerevisiae NMT (Total E. coli NMT) (Saccharomyces cerevisiae, UniProt P14743, S2A); test: coupled in vitro assay for NMT activity, Total E. coli NMT; type: biochemical; conditions: 15 μM myristate; for Vmax, Total E. coli NMT: peptide substrate, percentage of Vmax with GNAAAARR and myristoyl-CoA; for Km: peptide substrate varied
T3 construct: intact 53 kDa (codon 2 Ser to Ala from cloning) plus 45 kDa truncated form
T3 sequence (P14743 1-455 S2A): T2 sequence (P14743 1-455) with S2A
Experimental: as §1, §2

[4] = molecular target: T4, yeast NMT coexpressed with murine PK-A C-subunit in E. coli strain JM101 (Saccharomyces cerevisiae, UniProt P14743, S2A); test: [3H]Fatty acid labeling of PK-A C-subunit produced in E. coli coexpressing yeast NMT1; type: cell-based, S. cerevisiae; conditions: for incorporation of [3H]fatty acid into the C-subunit of PK-A: E. coli JM101 with NMT1 and wild type Cα plasmids after induction, SDS-PAGE and fluorography
T4 construct: metabolic labeling in cells
Experimental: [^3 H]Fatty acid labeling of PK-A C-subunit produced in E. coli. Four ml cultures of the double transformants were shaken at 37° C. to an OD600 of 0.5 in LB broth+100 μg/ml ampicillin and 100 μg/ml kanamycin sulfate. Isopropyl-β-D-thiogalactopyranoside (IPTG) was then added to a final concentration of 1 mM to induce NMT production (see Results, below). When the cultures reached OD600 =1.0 (approximately 40 min later), nalidixic acid was added to a final concentration of 50 μg/ml to induce C-subunit production (see Results, below). [^3 H]Myristate (New England Nuclear; 39.3 Ci/mmol, 113 μCi added per ml of culture), [^3 H]palmitate (New England Nuclear; 30 Ci/mmol, 143 μCi/ml), or [^3 H]10-(propoxy)decanoate [Heuckeroth and Gordon, Proc. Natl. Acad. Sci. USA 86, 5262-5266 (1989)] (31.7 Ci/mmol, 800 μCi/ml) was added simultaneously with the nalidixic acid. Cultures were shaken for an additional 20 min at 37° C. and the cells were harvested by centrifugation. Lysates were prepared by boiling E. coli contained in the pellet for 10 min in 40 μL of a solution of 125 mM Tris, pH 8.0, 4% SDS, 20% glycerol, 10% β-mercaptoethanol, and 0.2M dithiothreitol. Cell debris was removed by centrifugation and 15 μl aliquots of the supernatant were subjected to SDS-PAGE [Laemmli, Nature 227, 680-685 (1970)] and subsequent fluorography using EN^3 HANCE (New England Nuclear) autoradiography enhancer. For Western blot analyses, 50 μg of reduced and denatured lysate proteins, prepared from unlabeled E. coli producing Gly^2 -C-subunit or Ala^2 -C-subunit, were separated by SDS-PAGE, electroblotted onto nitrocellulose [Burnette, Anal. Biochem. 112, 195-230 (1981)], and the filters probed with polyclonal, monospecific rabbit antisera raised against purified mouse C-subunit. Antigen-antibody complexes were visualized with ^125 I-protein A [Burnette, supra.].

[5] = peptide substrate, 15 μM myristate
[6] = fatty acyl-CoA substrate, 60 μM GNAAAARR

| Compound | Vmax, 45 kDa E. coli NMT [1, 5] | Vmax, Yeast NMT [2, 5] | Vmax, Total E. coli NMT [3] | Km [3] [µM] | other results |
| --- | --- | --- | --- | --- | --- |
| MGNAAAARR | Not a substrate | Not a substrate | Not a substrate |  |  |
| CCCCCCCCCCCCCC(=O)O [[^3 H]Myristic acid, Myristic acid] |  |  |  |  | Pronase E digestion product of the labeled C-subunit ([4]; C18 reverse-phase HPLC): co-migrated with the chemically synthesized [^3 H]myristoylglycine standard; incorporation of [3H]fatty acid into the C-subunit of PK-A [4]: efficiently linked to the Gly^1 residue of the C-subunit; incorporation of [3H]fatty acid into the C-subunit of PK-A ([4]; listed as [^3 H]myristic acid): a 40 kDa protein was metabolically labeled; overall efficiency of NMT-catalyzed linkage of the myristoyl moiety to the C-subunit ([4]; in E. coli, estimated from Western blot, incorporated label and specific activity): ~100% |
| C[C@H](NC(=O)[C@H](C)NC(=O)[C@H](C)NC(=O)[C@H](CC(N)=O)NC(=O)CN)C(=O)N[C@@H](C)C(=O)N[C@@H](CCCNC(=N)N)C(=O)N[C@@H](CCCNC(=N)N)C(N)=O (H-GNAAAARR-NH2) | 100% | 100% | 100% |  | Km ([1]; 15 μM myristate): 62.5 µM |
| CCCCCCCCCCCCCC(=O)SCCNC(=O)CCNC(=O)[C@H](O)C(C)(C)COP(=O)(O)OP(=O)(O)OC[C@H]1O[C@@H](n2cnc3c(N)ncnc32)[C@H](O)[C@@H]1OP(=O)(O)O [Myristoyl-CoA] |  |  |  |  | Vmax, 45 kDa E. coli NMT [1, 6]: 100%; Vmax, Yeast NMT [2, 6]: 100% |
| GSSKSKPK [synthetic octapeptide substrate, one letter amino acid code] | 52% | 43% | 33% | 48.5 | Km ([1]; 15 μM myristate): 66 µM; Km ([2]; 15 μM myristate): 40 µM |
| GSAAAARR [synthetic octapeptide substrate, one letter amino acid code] |  | 50% | 27.6% | 697 | Km ([2]; 15 μM myristate): 1700 µM |
| GPAAAARR [synthetic octapeptide substrate, one letter amino acid code] | < 2% | < 2% | 21.6% | 7100 |  |
| CCCOCCCCCCCCCC(=O)O [[^3 H]10-(propoxy)decanoic acid, 10-(propoxy)decanoic acid] |  |  |  |  | incorporation of [3H]fatty acid into the C-subunit of PK-A [4]: effective alternative substrate for NMT that could be incorporated into the C-subunit of PK-A; incorporation of [3H]fatty acid into the C-subunit of PK-A ([4]; listed as [^3 H]11-oxamyristate): could also be labeled in a Gly^2 dependent manner |
| GSAASARR [synthetic octapeptide substrate, one letter amino acid code] |  | 34% | 29% | 2.1 | Km ([2]; 15 μM myristate): 3 µM |
| GDAAAARR [synthetic octapeptide substrate, one letter amino acid code] | < 2% | < 2% | 4.2% | 645 |  |
| CCCCCCCCCCCCCCCC(=O)SCCNC(=O)CCNC(=O)[C@H](O)C(C)(C)COP(=O)(O)OP(=O)(O)OC[C@H]1O[C@@H](n2cnc3c(N)ncnc32)[C@H](O)[C@@H]1OP(=O)(O)O [Palmitoyl-CoA] |  |  |  |  | Vmax, 45 kDa E. coli NMT [1, 6]: 22.4%; Vmax, Yeast NMT [2, 6]: 21% |
| C[C@H](NC(=O)[C@H](C)NC(=O)[C@H](CC(N)=O)NC(=O)CN)C(=O)N[C@@H](CO)C(=O)N[C@@H](C)C(=O)N[C@@H](CCCNC(=N)N)C(=O)N[C@@H](CCCNC(=N)N)C(N)=O (H-GNAASARR-NH2) | 4.9% | 3% | 3.6% |  | reduction in apparent Km ([1]; relative to GNAAAARR-NH2, Mono S purified 45 kDa NMT): 100 fold |
| GNAADARR [synthetic octapeptide substrate, one letter amino acid code] | < 2% | < 2% | 4.9% | 503 |  |
| ANAAAARR | Not a substrate | Not a substrate | Not a substrate |  |  |
| ASSKSKPK [synthetic octapeptide, one letter amino acid code] | Not a substrate | Not a substrate | Not a substrate |  |  |
| GYAAAARR [synthetic octapeptide, one letter amino acid code] | < 2% | Not a substrate | < 2% |  |  |
| CCCOCCCCCCCCCC(=O)SCCNC(=O)CCNC(=O)[C@H](O)C(C)(C)COP(=O)(O)OP(=O)(O)OC[C@H]1O[C@@H](n2cnc3c(N)ncnc32)[C@H](O)[C@@H]1OP(=O)(O)O [11-oxamyristoyl-CoA] |  |  |  |  | Vmax, 45 kDa E. coli NMT [1, 6]: 450%; Vmax, Yeast NMT [2, 6]: 270% |
